Test results published in patent publication US7217865B2, “Transgenic high tryptophan plants” (Monsanto Technology LLC, priority 2001, dated 2007).
Numbering of substitutions follows the chain as printed. Numbers in names are those of the source. Where two headings read alike, the source gives them in different places.

Key:
[1] = system: C=C(O[C@@H]1C=C(C(=O)O)C=C[C@H]1O)C(=O)O; assay: Anthranilate synthase enzyme assay and kinetic analysis, S51C mutant; assay type: biochemical, Agrobacterium tumefaciens; conditions: other: S51C, pH 7.0, 10 mM L-glutamine, 2.5–100 μM chorismate, 25.0 °C
From the text: (§1) Site directed mutagenesis was used to generate ten single amino acid substitutions six sites. The mutations were introduced into the Agrobacterium tumefaciens AS in pMON34705 using the QuikChange™ Site-Directed Mutagenesis Kit (Stratagene). The primers used for site directed mutagenesis were SEQ ID NO:9–42 (FIG. 7; F=forward, R=reverse). Each primer sequence is specific for alteration of the nucleic acid at a specific location in the sequence and thus changing the encoded codon to code for a new amino acid. For example, S51C designates a change from serine to cysteine at amino acid position 51 in the Agrobacterium tumefaciens AS peptide sequence.
(§2) Following mutagenesis the sequence of the entire gene was reconfirmed and the variants expressed and purified from E. coli as described below for the wild type enzyme. The resultant plasmids comprising mutant Agrobacterium tumefaciens AS are suitably cloned into a plasmid for overproduction of protein using the T7 expression system as described in Example 1.
(§3) Agrobacterium tumefaciens AS wild type and mutant enzymes were expressed in E. coli as described in Example 1. The purification of all the Agrobacterium tumefaciens AS enzymes, including wild type and mutants therof, was performed at 4° C. The cells (approximate wet weight of 1 g) were suspended in 20 ml of purification buffer (50 mM potassium phosphate, pH […], 10 mM 2-mercaptoethanol, 10% glycerol) and lysed by ultrasonication (Branson sonifier Cell Disruptor, W185). Supernatant was collected after centrifugation of the homogenate at 20,000× g for 15 min. The supernatant was subjected to ammonium sulfate fractionation (30 to 65% saturation). The precipitate was collected after centrifugation at 20,000× g for […] and dissolved in 3 ml of the purification buffer and then loaded as a whole on an Econo-Pac 10DG desalting column, pre-equilibrated with the same buffer. Fractions containing the enzyme were detected by the developed assay and pooled. The pooled enzyme (4.3 mls) was loaded on a 10 ml DEAE Sephacel (Pharmacia Biotech) column (1.5×7.5 cm) equilibrated with the same buffer. The column was washed with 30 ml of the purification buffer and the enzyme was eluted with 30 ml of 50 mM NaCl in the same buffer. Fractions containing high AS activity were pooled and precipitated by 65% ammonium sulfate saturation and isolated and desalted as above. Fractions containing the enzyme were pooled and stored at −80° C.
(§4) The standard assay for Agrobacterium tumefaciens AS was performed at 25° C. in an assay buffer containing 100 mM potassium phosphate, pH 7.0, 1 0 mM MgCl2, 1 mM dithiothreitol, 200 μM chorismate and 10 mM L-glutamine. The reaction was started by adding 30 μl of enzyme to the reaction mixture and mixing. The formation of anthranilate was directly monitored by the absorbance increase at […] for 3 min. Initial rate of reaction was calculated as unit absorbance increase per second based on the slope of the absorbance change over the reaction time. Km for chorismate (Km^Cho) was determined in the total volume of 1 ml assay buffer containing 100 mM potassium phosphate, pH 7.0, 10 mM MgCl2, 1 mM dithiothreitol with 10 mM L-glutamine and varying the concentration of chorismate between 2.5–100 μM chorismate. […] Kinetic parameters and IC50 of AS were calculated after fitting the data to a non-linear regression program (GraFit).

[2] = system: NC(=O)CC[C@H](N)C(=O)O; assay: as above; assay type: biochemical, Agrobacterium tumefaciens; conditions: other: S51C, pH 7.0, 200 μM chorismate, 0.1–2 mM L-glutamine, 25.0 °C
From the text: as §1, §2, §3, §4

[3] = system: C=C(O[C@@H]1C=C(C(=O)O)C=C[C@H]1O)C(=O)O; assay: Anthranilate synthase enzyme assay and kinetic analysis, S51F mutant; assay type: biochemical, Agrobacterium tumefaciens; conditions: other: S51F, pH 7.0, 10 mM L-glutamine, 2.5–100 μM chorismate, 25.0 °C
From the text: as §1, §2, §3, §4

[4] = system: NC(=O)CC[C@H](N)C(=O)O; assay: as above; assay type: biochemical, Agrobacterium tumefaciens; conditions: other: S51F, pH 7.0, 200 μM chorismate, 0.1–2 mM L-glutamine, 25.0 °C
From the text: as §1, §2, §3, §4

[5] = system: C=C(O[C@@H]1C=C(C(=O)O)C=C[C@H]1O)C(=O)O; assay: Anthranilate synthase enzyme assay and kinetic analysis, V48F mutant; assay type: biochemical, Agrobacterium tumefaciens; conditions: other: V48F, pH 7.0, 10 mM L-glutamine, 2.5–100 μM chorismate, 25.0 °C
From the text: as §1, §2, §3, §4

[6] = system: NC(=O)CC[C@H](N)C(=O)O; assay: as above; assay type: biochemical, Agrobacterium tumefaciens; conditions: other: V48F, pH 7.0, 200 μM chorismate, 0.1–2 mM L-glutamine, 25.0 °C
From the text: as §1, §2, §3, §4

[7] = system: C=C(O[C@@H]1C=C(C(=O)O)C=C[C@H]1O)C(=O)O; assay: Anthranilate synthase enzyme assay and kinetic analysis, V48Y mutant; assay type: biochemical, Agrobacterium tumefaciens; conditions: other: V48Y, pH 7.0, 10 mM L-glutamine, 2.5–100 μM chorismate, 25.0 °C
From the text: as §1, §2, §3, §4

[8] = system: NC(=O)CC[C@H](N)C(=O)O; assay: as above; assay type: biochemical, Agrobacterium tumefaciens; conditions: other: V48Y, pH 7.0, 200 μM chorismate, 0.1–2 mM L-glutamine, 25.0 °C
From the text: as §1, §2, §3, §4

[9] = system: Agrobacterium tumefaciens AS; assay: Anthranilate synthase enzyme assay and kinetic analysis of purified enzymes; assay type: biochemical; conditions: for IC50: inhibition by L-tryptophan
Procedure: as §3
The standard assay for Agrobacterium tumefaciens AS was performed at 25° C. in an assay buffer containing 100 mM potassium phosphate, pH 7.0, 1 0 mM MgCl2, 1 mM dithiothreitol, 200 μM chorismate and 10 mM L-glutamine. The reaction was started by adding 30 μl of enzyme to the reaction mixture and mixing. The formation of anthranilate was directly monitored by the absorbance increase at […] for 3 min. Initial rate of reaction was calculated as unit absorbance increase per second based on the slope of the absorbance change over the reaction time. Km for chorismate (Km^Cho) was determined in the total volume of 1 ml assay buffer containing 100 mM potassium phosphate, pH 7.0, 10 mM MgCl2, 1 mM dithiothreitol with 10 mM L-glutamine and varying the concentration of chorismate between 2.5–100 μM chorismate. The Km for glutamine (Km^Gln) was determined in the total volume of 1 ml assay buffer containing 100 mM potassium phosphate, pH 7.0, 10 mM MgCl2, 1 mM dithiothreitol with 200 μM chorismate and varying the concentration of L-glutamine between 0.1–2 mM L-glutamine. IC50 for tryptophan (IC50TrP) was determined with in the total volume of 1 ml assay buffer containing 100 mM potassium phosphate, pH 7.0, 10 mM MgCl2, 1 mM dithiothreitol, 10 mM L-glutamine, 200 μM chorismate and varying the concentration of L-tryptophan between 0.1–10 mM L-tryptophan. Kinetic parameters and IC50 of AS were calculated after fitting the data to a non-linear regression program (GraFit).

[10] = Km for chorismate, 10 mM L-glutamine, pH 7.0, 25° C., read-out: Km^Cho
[11] = Km for glutamine, 200 μM chorismate, pH 7.0, read-out: Km^Gln
[12] = 10 mM L-glutamine, 200 μM chorismate

Agrobacterium tumefaciens anthranilate synthase variant S51C, SEQ ID NO:61 (Agrobacterium fabrum str. C58; S51C)
Km [1]: 2.8 µM | kcat [1]: 0.15 s⁻¹ | kcat/Km [1]: 53600 M⁻¹ s⁻¹ | Km [2]: 80 µM

Agrobacterium tumefaciens anthranilate synthase variant S51F, SEQ ID NO:60 (Agrobacterium fabrum str. C58; S51F)
Km [3]: 10 µM | kcat [3]: 0.08 s⁻¹ | kcat/Km [3]: 8000 M⁻¹ s⁻¹ | Km [4]: 60 µM

Agrobacterium tumefaciens anthranilate synthase variant V48F, SEQ ID NO:58 (Agrobacterium fabrum str. C58; V48F)
Km [5]: 4.5 µM | kcat [5]: 0.24 s⁻¹ | kcat/Km [5]: 53300 M⁻¹ s⁻¹ | Km [6]: 80 µM

Agrobacterium tumefaciens anthranilate synthase variant V48Y, SEQ ID NO:59 (Agrobacterium fabrum str. C58; V48Y)
Km [7]: 4.2 µM | kcat [7]: 0.18 s⁻¹ | kcat/Km [7]: 42800 M⁻¹ s⁻¹ | Km [8]: 100 µM

B1: F298A (protein)
chain: MVTIIQDDGAETYETKGGIQVSRKRRPTDYANAIDNYIEKLDSHRGAVFSSNYEYPGRYTRWDTAIVDPPLGISCFGRKMWIEAYNGRGEVLLDFITEKLKATPDLTLGASSTRRLDLTVNEPDRVFTEEERSKIPTVFTALRAIVDLFYSSADSAIGLFGAFGYDLAFQFDAIKLSLARPEDQRDMVLFLPDEILVVDHYSAKAWIDRYDFEKDGMTTDGKSSDITPDPFKTTDTIPPKGDHRPGEYSELVVKAKESFRRGDLFEVVPGQKFMERCESNPSAISRRLKAINPSPYSAFINLGDQEYLVGASPEMFVRVSGRRIETCPISGTIKRGDDPIADSEQILKLLNSKKDESELTMCSDVDRNDKSRVCEPGSVKVIGRRQIEMYSRLIHTVDHIEGRLRDDMDAFDGFLSHAWAVTVTGAPKLWAMRFIEGHEKSPRAWYGGAIGMVGFNGDMNTGLTLRTIRIKDGIAEVRAGATLLNDSNPQEEEAETELKASAMISAIRDAKGTNSAATKRDAAKVGTGVKILLVDHEDSFVHTLANYFRQTGATVSTVRSPVAADVFDRFQPDLVVLSPGPGSPTDFDCKATIKAARARDLPIFGVCLGLQALAEAYGGELRQLAVPMHGKPSRIRVLEPGLVFSGLGKEVTVGRYHSIFADPATLPRDFIITAESEDGTIMGIEHAKEPVAAVQFHPESIMTLGQDAGMRMIENVVVHLTRKAKTKAA
kcat [9]: 0.46 s⁻¹ | Km [9, 10]: 9.2 µM | Km [9, 11]: 100 µM | IC50 [9, 12]: 5.5 µM

B2: F298W (protein)
chain: B1 chain with A298W
kcat [9]: 0.44 s⁻¹ | Km [9, 10]: 18 µM | Km [9, 11]: 140 µM | IC50 [9, 12]: 450 µM
